Test results published in patent US20190263932A1 (Eli Lilly, published 2019).
Where a chain is given by its changes, count along the chain named.

B1: mAb D (antibody, human IgG1, kappa)
heavy: EVQLVESGGGLVKPGGSLRLSCAASGFTFSGVSINWVRQAPGKGLEWVSSETTSSGTIYYADSVKGRFTISRDNAKNSLYLQMNSLRAEDTAVYYCARSYYYGMDVWGQGTTVTVSSASTKGPSVFPLAPSSKSTSGGTAALGCLVKDYFPEPVTVSWNSGALTSGVHTFPAVLQSSGLYSLSSVVTVPSSSLGTQTYICNVNHKPSNTKVDKRVEPKSCDKTHTCPPCPAPEAEGAPSVFLFPPKPKDTLMISRTPEVTCVVVDVSHEDPEVKFNWYVDGVEVHNAKTKPREEQYNSTYRVVSVLTVLHQDWLNGKEYKCKVSNKALPSSIEKTISKAKGQPREPQVYTLPPSREEMTKNQVSLTCLVKGFYPSDIAVEWESNGQPENNYKTTPPVLDSDGSFFLYSKLTVDKSRWQQGNVFSCSVMHEALHNHYTQKSLSLSPGK
light: DIVMTQTPLSSPVTLGQPASISCRSSQSLVHRAGNTYLSWLQQRPGQPPRLLIYKISNRFSGVPDRFSGSGAGTDFTLKISRVEAEDVGVYYCMQARQFPLTFGGGTKVEIKRTVAAPSVFIFPPSDEQLKSGTASVVCLLNNFYPREAKVQWKVDNALQSGNSQESVTEQDSKDSTYSLSSTLTLSKADYEKHKVYACEVTHQGLSSPVTKSFNRGEC
notes: Human IgG1EN/Kappa
B2: mAb E (antibody, human IgG1, kappa)
heavy: B1 heavy
light: B1 light with A33Q
notes: Human IgG1EN/Kappa

What was measured:
[1] = biological target: T1, recombinant human TrkA protein (human, UniProt P04629-2 34-407, limits assumed); assay: NGF-blocking ELISA on coated human TrkA, 100 nM btNGF; mAb 5 nM
Method: (§1) Each row of a 96-well high-binding clear-bottom microtiter plate (Microlon, #655061) was coated overnight at 4° C. with 100 μL/well of recombinant human TrkA protein, diluted to 2 μg/mL in phosphate buffered saline, pH 7.2 (PBS). The next day, the coating solution was removed, and the plate was blocked with 150 μL of Casein-PBS (Thermo Scientific, #37528) for 1 hour at 25° C. with gentle shaking. The plate was then washed three times with PBS supplemented with 0.05% Tween20 (PBST). A two-fold dilution series of exemplified antibodies, along with IgG4 and IgG1 isotype control antibodies, was generated starting at 20 nM in Casein-PBS. 100 μL of the each dilution series sample was added to a well for 30 min at 37° C. with gentle shaking. The plate was then washed three times with PBST. […] The plate was then washed three times with PBST. A 1:3500 dilution of a 1 mg/mL stock solution of streptavidin-HRP (Thermo Scientific, #21130) in Casein-PBS was prepared and […] was added to each well for 20 min at 37° C. with gentle shaking. The plate was washed three times with PBST. […] The reaction was stopped by addition of 100 μL of 1M H₃PO₄ to each well. The absorbance at 450 nm (Abs450) was measured using a SpectraMax 340PC plate reader (Molecular Devices).

[2] = biological target: T1, recombinant human TrkA protein; assay: NGF-blocking ELISA on coated human TrkA, 100 nM btNGF; mAb 20 nM
[3] = biological target: T1, recombinant human TrkA protein; assay: NGF-blocking ELISA on coated human TrkA, 100 nM btNGF; mAb 0.16 nM
Method: as §1

[4] = biological target: T2, rat TrkA receptor expressed in transfected HEK293 cells (rat, UniProt P35739 33-799); assay: cell-based or functional assay
[5] = biological target: T1, recombinant human TrkA protein; assay: NGF-blocking ELISA on coated human TrkA, 100 nM btNGF
Method: as §1

[6] = biological target: T1, recombinant human TrkA protein; assay: NGF-blocking ELISA on coated human TrkA, 100 nM btNGF; mAb 0.08 nM
Method: as §1

[7] = biological target: T1, recombinant human TrkA protein; assay: NGF-blocking ELISA on coated human TrkA, 100 nM btNGF; mAb 0.63 nM
Method: as §1

[8] = biological target: T1, recombinant human TrkA protein; assay: NGF-blocking ELISA on coated human TrkA, 100 nM btNGF; mAb 0.31 (printed pM, two-fold series gives nM)
Method: as §1

[9] = biological target: TrkA on rat NEUROSCREEN-1 cells (pheochromocytoma PC12 subclone) (rat, UniProt P35739 33-799); assay: cell-based or functional assay
[10] = biological target: T1, recombinant human TrkA protein; assay: NGF-blocking ELISA on coated human TrkA, 100 nM btNGF; mAb 1.25 nM
Method: as §1

[11] = biological target: T1, recombinant human TrkA protein; assay: NGF-blocking ELISA on coated human TrkA, 100 nM btNGF; mAb 10 nM
Method: as §1

[12] = biological target: T2, rat TrkA receptor expressed in …; assay: cell-based or functional assay; remark: listed apart in the source
[13] = biological target: T1, recombinant human TrkA protein; assay: NGF-blocking ELISA on coated human TrkA, 100 nM btNGF; mAb 0.04 nM
Method: as §1

[14] = biological target: T1, recombinant human TrkA protein; assay: NGF-blocking ELISA on coated human TrkA, 100 nM btNGF; mAb 2.5 nM
Method: as §1

[15] = biological target: T1, recombinant human TrkA protein; assay: NGF-blocking ELISA on coated human TrkA, 100 nM btNGF; mAb 0.02 nM
Method: as §1

[16] = biological target: T3, Human TrkA Extracellular Domain Isoform 1 (33-414) (human, UniProt P04629 33-414); assay: SPR, mAb captured on Protein A chip, 37 C
T3 construct: SPR analyte; also called Human TrkA Isoform 1
Method: (§2) The binding kinetics and affinity of exemplified antibodies to human, cynomolgus monkey, rat, mouse, and rabbit TrkA are determined as described below using a surface plasmon resonance assay on a BIACORE™ 8K instrument (GE Healthcare). Two different isoforms of human TrkA (isoform 1 and isoform 2) are evaluated along with human TrkB and human TrkC. […] All FC2 on all eight channels are set to capture approximately 89 response units (RU) of antibody at a flow rate of 10 μL/min. The antibody sample is prepared at 1 μg/mL by dilution into the running buffer. […] Before the analysis cycle, the chip is regenerated with 3 injections of glycine (pH ˜1.5) at 100 μL/min for a contact time of 15 seconds on FC1 and FC2 in order to clean the surface of the chip.

[17] = biological target: T4, Human TrkA Extracellular Domain Isoform 2 (33-408) (human, UniProt P04629 33-414); assay: SPR, mAb captured on Protein A chip, 37 C
T4 construct: SPR analyte; also called Human TrkA Isoform 2
Method: as §2

T4 sequence (P04629 other isoform, or with tags, fused parts or gaps): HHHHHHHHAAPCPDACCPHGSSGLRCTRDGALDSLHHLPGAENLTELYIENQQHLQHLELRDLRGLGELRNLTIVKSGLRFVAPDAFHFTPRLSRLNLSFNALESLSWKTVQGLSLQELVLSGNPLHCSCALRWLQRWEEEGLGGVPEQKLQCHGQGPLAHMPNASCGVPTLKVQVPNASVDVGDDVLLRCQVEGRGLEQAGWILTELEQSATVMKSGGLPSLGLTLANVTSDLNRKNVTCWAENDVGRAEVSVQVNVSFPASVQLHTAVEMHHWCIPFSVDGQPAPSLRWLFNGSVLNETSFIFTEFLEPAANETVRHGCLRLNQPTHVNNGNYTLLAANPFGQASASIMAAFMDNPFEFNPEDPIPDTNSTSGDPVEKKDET
T1 sequence (P04629 other isoform, or with tags, fused parts or gaps limits assumed): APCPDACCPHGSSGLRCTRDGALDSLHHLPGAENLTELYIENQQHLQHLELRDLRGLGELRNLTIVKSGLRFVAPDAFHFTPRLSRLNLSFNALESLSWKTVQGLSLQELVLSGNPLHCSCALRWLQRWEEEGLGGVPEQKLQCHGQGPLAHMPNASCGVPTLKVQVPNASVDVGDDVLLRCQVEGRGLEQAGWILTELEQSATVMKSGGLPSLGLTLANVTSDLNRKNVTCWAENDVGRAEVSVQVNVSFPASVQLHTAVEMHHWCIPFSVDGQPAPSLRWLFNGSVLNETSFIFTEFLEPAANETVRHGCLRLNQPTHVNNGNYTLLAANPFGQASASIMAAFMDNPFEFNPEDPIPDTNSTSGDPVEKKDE
Chain of TrkA on rat NEUROSCREEN-1 cells (pheochromocytoma PC12 subclone) (P35739 33-799): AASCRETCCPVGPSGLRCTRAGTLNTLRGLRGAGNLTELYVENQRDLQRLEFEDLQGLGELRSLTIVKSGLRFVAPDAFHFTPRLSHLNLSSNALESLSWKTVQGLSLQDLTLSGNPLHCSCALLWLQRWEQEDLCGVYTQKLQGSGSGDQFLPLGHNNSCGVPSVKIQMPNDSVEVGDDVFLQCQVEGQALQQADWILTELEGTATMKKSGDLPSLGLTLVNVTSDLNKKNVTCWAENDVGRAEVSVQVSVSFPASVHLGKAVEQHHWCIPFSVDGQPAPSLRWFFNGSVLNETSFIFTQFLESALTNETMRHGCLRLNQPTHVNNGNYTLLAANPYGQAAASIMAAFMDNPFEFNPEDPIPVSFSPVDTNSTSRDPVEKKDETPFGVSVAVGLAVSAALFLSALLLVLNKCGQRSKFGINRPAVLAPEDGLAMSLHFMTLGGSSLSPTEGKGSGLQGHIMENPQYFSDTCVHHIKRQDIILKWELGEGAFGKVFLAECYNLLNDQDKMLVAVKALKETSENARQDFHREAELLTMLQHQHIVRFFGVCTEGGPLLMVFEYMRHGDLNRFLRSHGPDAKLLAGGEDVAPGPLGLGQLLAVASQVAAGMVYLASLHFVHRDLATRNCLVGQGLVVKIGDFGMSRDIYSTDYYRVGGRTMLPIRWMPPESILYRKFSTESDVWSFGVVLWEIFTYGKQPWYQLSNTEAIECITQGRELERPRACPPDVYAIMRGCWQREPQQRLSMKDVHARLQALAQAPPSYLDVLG
T2 sequence (P35739 33-799): as above
T3 sequence (P04629 other isoform, or with tags, fused parts or gaps): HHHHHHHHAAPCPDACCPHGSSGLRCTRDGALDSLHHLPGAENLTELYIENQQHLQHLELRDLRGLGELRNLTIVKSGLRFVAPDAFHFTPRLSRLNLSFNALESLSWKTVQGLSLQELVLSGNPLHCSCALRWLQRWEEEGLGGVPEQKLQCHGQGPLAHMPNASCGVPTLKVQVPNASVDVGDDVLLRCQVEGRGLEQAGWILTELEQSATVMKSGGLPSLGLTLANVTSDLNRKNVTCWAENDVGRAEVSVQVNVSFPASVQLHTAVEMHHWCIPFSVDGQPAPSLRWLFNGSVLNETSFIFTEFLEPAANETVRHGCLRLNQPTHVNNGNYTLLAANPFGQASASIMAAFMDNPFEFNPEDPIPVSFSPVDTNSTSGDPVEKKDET

| Binder | Absorbance 450 nm [1] | Absorbance 450 nm [2] | Absorbance 450 nm [3] | % Max stimulation, pTrkA [4] | EC50 (nM), pTrkA [4] | pTrkA counts per second, 0.1 pM mAb, no NGF [4] | pTrkA counts per second, 1 pM mAb, no NGF [4] | pTrkA counts per second, 10 pM mAb, no NGF [4] | pTrkA counts per second, 100 pM mAb, no NGF [4] | pTrkA counts per second, 1 nM mAb, no NGF [4] | pTrkA counts per second, 10 nM mAb, no NGF [4] | pTrkA counts per second, 100 nM mAb, no NGF [4] | pTrkA counts per second, 1 uM mAb, no NGF [4] | IC50 [5] | Absorbance 450 nm [6] | Absorbance 450 nm [7] | Absorbance 450 nm [8] | % Max Stimulation of neurite outgrowth [9] | IC50, inhibition of NGF-induced neurite outgrowth [9] | Absorbance 450 nm [10] | other results |
| --- | --- | --- | --- | --- | --- | --- | --- | --- | --- | --- | --- | --- | --- | --- | --- | --- | --- | --- | --- | --- | --- |
| B1 | 0.19 | 0.19 | 0.89 | 77% | 0.17 nM | 571000 counts per second | 585000 counts per second | 627000 counts per second | 1.25e+06 counts per second | 2.39e+06 counts per second | 2.97e+06 counts per second | 2.85e+06 counts per second | 2.05e+06 counts per second | 0.37 nM | 0.96 | 0.38 | 0.67 | 17% | 0.08 nM | 0.19 | Absorbance 450 nm [11]: 0.17; % Max Inhibition, pTrkA [12]: 40%; IC50 (nM), pTrkA [12]: 0.68 nM; pTrkA counts per second, NGF +0.1 pM mAb [12]: 4.53e+06 counts per second; pTrkA counts per second, NGF +1 pM mAb [12]: 4.06e+06 counts per second; pTrkA counts per second, NGF +10 pM mAb [12]: 4.52e+06 counts per second; pTrkA counts per second, NGF +100 pM mAb [12]: 3.79e+06 counts per second; pTrkA counts per second, NGF +1 nM mAb [12]: 3.16e+06 counts per second; pTrkA counts per second, NGF +10 nM mAb [12]: 2.43e+06 counts per second; pTrkA counts per second, NGF +100 nM mAb [12]: 2.59e+06 counts per second; pTrkA counts per second, NGF +1 uM mAb [12]: 1.93e+06 counts per second; Absorbance 450 nm [13]: 1; Absorbance 450 nm [14]: 0.16; Absorbance 450 nm [15]: 1.05; Kd [16]: 4.4 nM; koff [16]: 0.0012 s⁻¹; kon [16]: 280000 M⁻¹ s⁻¹; Kd [17]: 4.9 nM; koff [17]: 0.0013 s⁻¹; kon [17]: 250000 M⁻¹ s⁻¹ |
| B2 | 0.21 | 0.19 | 0.92 | 74% | 0.3 nM | 739000 counts per second | 636000 counts per second | 610000 counts per second | 1.01e+06 counts per second | 1.82e+06 counts per second | 2.46e+06 counts per second | 2.02e+06 counts per second | 2.05e+06 counts per second | 0.35 nM | 1.05 | 0.41 | 0.68 | 17% | 0.07 nM | 0.25 | Absorbance 450 nm [11]: 0.19; % Max Inhibition, pTrkA [12]: 37%; IC50 (nM), pTrkA [12]: 0.68 nM; pTrkA counts per second, NGF +0.1 pM mAb [12]: 2.94e+06 counts per second; pTrkA counts per second, NGF +1 pM mAb [12]: 3.38e+06 counts per second; pTrkA counts per second, NGF +10 pM mAb [12]: 3.44e+06 counts per second; pTrkA counts per second, NGF +100 pM mAb [12]: 3.7e+06 counts per second; pTrkA counts per second, NGF +1 nM mAb [12]: 2.27e+06 counts per second; pTrkA counts per second, NGF +10 nM mAb [12]: 2.23e+06 counts per second; pTrkA counts per second, NGF +100 nM mAb [12]: 1.7e+06 counts per second; pTrkA counts per second, NGF +1 uM mAb [12]: 1.88e+06 counts per second; Absorbance 450 nm [13]: 1.04; Absorbance 450 nm [14]: 0.19; Absorbance 450 nm [15]: 1.1; Kd [16]: 4.8 nM; koff [16]: 0.0013 s⁻¹; kon [16]: 270000 M⁻¹ s⁻¹; Kd [17]: 5.2 nM; koff [17]: 0.0014 s⁻¹; kon [17]: 260000 M⁻¹ s⁻¹ |
